# In paper doi:10.1101/2024.12.23.630133 (bioRxiv, 2024):
# B1: HCN1SM (GFP-tagged human HCN1 channel) (natural protein)
# chain: MEGGGKPNSSSNSRDDGNSVFPAKASATGAGPAAAEKRLGTPPGGGGAGAKEHGNSVCFKVDGGGGGGGGGGGGEEPAGGFEDAEGPRRQYGFMQRQFTSMLQPGVNKFSLRMFGSQKAVEKEQERVKTAGFWIIHPYSDFRFYWDLIMLIMMVGNLVIIPVGITFFTEQTTTPWIIFNVASDTVFLLDLIMNFRTGTVNEDSSEIILDPKVIKMNYLKSWFVVDFISSIPVDYIFLIVEKGMDSEVYKTARALRIVRFTKILSLLRLLRLSRLIRYIHQWEEIFHMTYDLASAVVRIFNLIGMMLLLCHWDGCLQFLVPLLQDFPPDCWVSLNEMVNDSWGKQYSYALFKAMSHMLCIGYGAQAPVSMSDLWITMLSMIVGATCYAMFVGHATALIQSLDSSRRQYQEKYKQVEQYMSFHKLPADMRQKIHDYYEHRYQGKIFDEENILNELNDPLREEIVNFNCRKLVATMPLFANADPNFVTAMLSKLRFEVFQPGDYIIREGAVGKKMYFIQHGVAGVITKSSKEMKLTDGSYFGEICLLTKGRRTASVRADTYCRLYSLSVDNFNEVLEEYPMMRRAFETVAIDRLDRIGKKNSILLQKFQKDLNTGVFNNQENEILKQIVKHDREMVQAIAPINYPQMTTLNSTSSTTTPTSRMRTQSPPVYTATSLSHSNLHSPSPSTQTPQPSAILSPCSYTTAVCSPPVQSPLAARTFHYASPTASQLSLMQQQPQQQVQQSQPPQTQPQQPSPQPQTPGSSTPKNEVHKSTQALHNTNLTREVRPLSASQPSLPHEVSTLISRPHPTVGESLASIPQPVTAVPGTGLQAGGRSTVPQRVTLFRQMSSGAIPPNRGVPPAPPPPAAALPRESSSVLNTDPDAEKPRFASNL
# Biological target: the molecule itself
# Assay: single-molecule GFP photobleaching
protein,measurement,value
B1,stoichiometry N,4
